One molecule from US20240158512A1 (TRUEBINDING, published 2024) can be followed below.

Test [1] has as its target T1, Galectin-3 (UniProt P17931 1-250, limits assumed).
T1 construct: also called Gal3; GAL3
Kind of test: ELISA biological activity (blocking ELISA, blocked partner not named); DP stored at 5° C. for 9 months. In general terms: ELISA stands for enzyme-linked immunosorbent assay.

Test [2] addresses T1, Galectin-3. Kind of test: ELISA biological activity (blocking ELISA, blocked partner not named); DP stored at 25° C. for 1 month.
Test [3] deals with T1, Galectin-3. As to the kind of experiment: ELISA biological activity (blocking ELISA, blocked partner not named); 20 mg/mL DP, time 0; Time 0 (control), 20 mg/mL DP.
The target in test [4] is T1, Galectin-3. Kind of test: BLI binding activity; DP stored at 25° C. for 6 months. (BLI is a label-free optical method that tracks binding on a fibre tip over time.)
Test [5] deals with T1, Galectin-3. As to the kind of experiment: ELISA biological activity (blocking ELISA, blocked partner not named); DP stored at 5° C. for 12 months.
Test [6] deals with T1, Galectin-3. As to the kind of experiment: BLI binding activity; DP stored at 25° C. for 1 month.
The target of test [7] is T1, Galectin-3. Kind of test: BLI binding activity; DP stored at 5° C. for 9 months.
Test [8] concerns the target T1, Galectin-3. Kind of test: BLI binding activity; DP stored at 5° C. for 3 months.
Test [9] concerns the target T1, Galectin-3. As to the kind of experiment: BLI binding activity; DP stored at 5° C. for 12 months.
The target of test [10] is T1, Galectin-3. Kind of test: ELISA biological activity (blocking ELISA, blocked partner not named); DP stored at 5° C. for 1 month.
For test [11], the target named is T1, Galectin-3. Kind of test: ELISA biological activity (blocking ELISA, blocked partner not named); DP stored at 25° C. for 3 months.
The target of test [12] is T1, Galectin-3. Kind of test: BLI binding activity; DP stored at 5° C. for 1 month.
Test [13] addresses T1, Galectin-3. As to the kind of experiment: ELISA biological activity (blocking ELISA, blocked partner not named); DP stored at 25° C. for 6 months.
For test [14], the target named is T1, Galectin-3. Kind of test: ELISA biological activity (blocking ELISA, blocked partner not named); DP stored at 5° C. for 6 months.
The target of test [15] is T1, Galectin-3. As to the kind of experiment: ELISA biological activity (blocking ELISA, blocked partner not named); DP stored at 5° C. for 18 months.
The target of test [16] is T1, Galectin-3. Kind of test: ELISA biological activity (blocking ELISA, blocked partner not named); DP stored at 5° C. for 3 months.
Test [17] has as its target T1, Galectin-3. As to the kind of experiment: BLI binding activity; DP stored at 5° C. for 6 months.
In test [18] the target is T1, Galectin-3. As to the kind of experiment: BLI binding activity; DP stored at 25° C. for 3 months.
For test [19], the target named is T1, Galectin-3. Kind of test: BLI binding activity; DP stored at 5° C. for 18 months.

T1 sequence (P17931 whole entry): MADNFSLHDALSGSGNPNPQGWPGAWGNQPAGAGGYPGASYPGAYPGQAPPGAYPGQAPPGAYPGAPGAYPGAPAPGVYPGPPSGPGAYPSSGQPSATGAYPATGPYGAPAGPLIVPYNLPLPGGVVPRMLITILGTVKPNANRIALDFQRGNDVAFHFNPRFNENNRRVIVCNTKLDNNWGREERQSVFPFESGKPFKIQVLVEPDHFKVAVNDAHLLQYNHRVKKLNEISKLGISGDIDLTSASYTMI

B1: TB006 (antibody, human IgG4 S228P, kappa, V domains shown)
VH: QVQLVQSGAEVKKPGASVKVSCKASGYSFTNYYMHWVRQAPGQRLEWMGWIYPGSGNTNYNEKFQGRVTITADTSASTAYMELSSLRSEDTAVYYCSTAPGGFDVWGQGTTVTVSS
VL: DIVMTQTPLSLSVTPGQPASISCKSSKSLLHSDGITYLYWYLQKPGQSPQLLIYRMSNLASGVPDRFSGSGSGTDFTLKISRVEAEDVGVYYCAQMLEFPLTFGQGTKLEIKR
notes: Tested as drug product at 20 mg/mL in 20 mM L-histidine, 5 mM methionine, 100 mM NaCl, 0.02% polysorbate-80, pH 5.8; also called 4A11.H3L1; IMT006a
B1: the IC50 (as a rule, the midpoint of a concentration-inhibition curve) came to 1.2 µg/mL in the test with Galectin-3 [1]; 1.8 µg/mL in the test with Galectin-3 [2]; 2.5 µg/mL with Galectin-3 [3]; 1.5 µg/mL with Galectin-3 [5]; 1.8 µg/mL with Galectin-3 [10]; 1.5 µg/mL in the test with Galectin-3 [11]. Further, the IC50 in the test with Galectin-3 [13] stood at 1.5 µg/mL; with Galectin-3 [14] it was 1.5 µg/mL; with Galectin-3 [15], 1.8 µg/mL; with Galectin-3 [16], 1.5 µg/mL. For the same molecule, the Kd (in general, the equilibrium constant for the complex coming apart) with Galectin-3 [4] stood at 3.7 nM; in the test with Galectin-3 [6], 2.5 nM; with Galectin-3 [7] it was 2.5 nM; with Galectin-3 [8], 3 nM; with Galectin-3 [9] it was 3.1 nM; in the test with Galectin-3 [12] it was 2.5 nM. Further, the Kd came out at 3.5 nM with Galectin-3 [17], 3.1 nM in the test with Galectin-3 [18] and 2 nM in the test with Galectin-3 [19].
